Assay results from patent publication US20220073604A1 (ARGENX BVBA, published 2022).

Experiments:
[1] = molecular target: T1, eukaryotically produced human IL-6 (human, UniProt P05231 30-212); assay: off-rate of Fab 111A7 variant on euk-hIL-6 (binding kinetics, SPR presumed; n = 3)
T1 construct: also called euk-hIL-6; EUK IL-6

[2] = molecular target: T2, bacterially produced human IL-6 (human, UniProt P05231 30-212); assay: off-rate of Fab 111A7 variant on bact-hIL-6 (binding kinetics, SPR presumed; n = 3)
T2 construct: also called bact-hIL-6; BACT IL-6

[3] = molecular target: T3, bacterially produced cynomolgus monkey IL-6 (cynomolgus monkey, UniProt P79341 28-212, limits assumed); assay: off-rate of Fab 111A7 variant on bact-cy IL-6 (binding kinetics, SPR presumed; n = 3)
T3 construct: also called bact-cy IL-6; HIS-cyIL-6

[4] = molecular target: IL-6 (bact-hIL-6, euk-hIL-6 and bact-cy IL-6; 'average binding' of Table 21); assay: average binding level in the off-rate screen (unit not given; n = 3)
[5] = molecular target: IL-6 (bact-hIL-6, euk-hIL-6 and bact-cy IL-6; 'average binding' of Table 21); assay: average binding level in the off-rate screen (unit not given; n = 4)
[6] = molecular target: T3, bacterially produced cynomolgus monkey …; assay: off-rate of Fab 111A7 variant on bact-cy IL-6 (binding kinetics, SPR presumed; n = 4)
[7] = molecular target: T2, bacterially produced human IL-6; assay: off-rate of Fab 111A7 variant on bact-hIL-6 (binding kinetics, SPR presumed; n = 5)
[8] = molecular target: T3, bacterially produced cynomolgus monkey …; assay: off-rate of Fab 111A7 variant on bact-cy IL-6 (binding kinetics, SPR presumed; n = 5)
[9] = molecular target: IL-6 (bact-hIL-6, euk-hIL-6 and bact-cy IL-6; 'average binding' of Table 21); assay: average binding level in the off-rate screen (unit not given; n = 5)
[10] = molecular target: T1, eukaryotically produced human IL-6; assay: off-rate of Fab 111A7 variant on euk-hIL-6 (binding kinetics, SPR presumed; n = 5)
[11] = molecular target: IL-6 (bact-hIL-6, euk-hIL-6 and bact-cy IL-6; 'average binding' of Table 21); assay: average binding level in the off-rate screen (unit not given; n = 1)
[12] = molecular target: T2, bacterially produced human IL-6; assay: off-rate of Fab 111A7 variant on bact-hIL-6 (binding kinetics, SPR presumed; n = 1)
[13] = molecular target: T1, eukaryotically produced human IL-6; assay: off-rate of Fab 111A7 variant on euk-hIL-6 (binding kinetics, SPR presumed; n = 1)
[14] = molecular target: T3, bacterially produced cynomolgus monkey …; assay: off-rate of Fab 111A7 variant on bact-cy IL-6 (binding kinetics, SPR presumed; n = 1)

B1: Fab 111A7M_A (CMC optimized variant of Fab 111A7, CDR3 methionine to alanine) (Fab, V domains shown)
VH: EVQLLESGGGLVQPGGSLRLSCAASGFTFSSYAMSWVRQAPGKGPEWVSRISAGGGSTYYGDSVKGRFTISRDNSKNTLYLQMNSLRAEDTAVYYCANRAGWGAGDYWGQGTLVTVSS
VL: QTVVTQEPSFSVSPGGTVTLTCGLSSGSVTASNYPGWYQQTPGQAPRALIYSTNDRHSGVPDRFSGSISGNKAALTITGAQAEDEADYYCALDIGDITEFGGGTQLTVL
notes: Fab; The VL is that of 111A7; also called M98X: A
- koff [1]: 4.77e-05 s⁻¹
- koff [2]: 8.5e-05 s⁻¹
- koff [3]: 0.000131 s⁻¹
- average binding [4]: 102

B2: Fab 111A7 with the CDR3 methionine changed to H (Fab, V domains shown)
VH: EVQLLESGGGLVQPGGSLRLSCAASGFTFSSYAMSWVRQAPGKGPEWVSRISAGGGSTYYGDSVKGRFTISRDNSKNTLYLQMNSLRAEDTAVYYCANRAGWGHGDYWGQGTLVTVSS
VL: QTVVTQEPSFSVSPGGTVTLTCGLSSGSVTASNYPGWYQQTPGQAPRALIYSTNDRHSGVPDRFSGSISGNKAALTITGAQAEDEADYYCALDIGDITEFGGGTQLTVL
- average binding [5]: 109
- koff [6]: 0.000222 s⁻¹

B3: Fab 111A7M_S (CMC optimized variant of Fab 111A7, CDR3 methionine to serine) (Fab, V domains shown)
VH: EVQLLESGGGLVQPGGSLRLSCAASGFTFSSYAMSWVRQAPGKGPEWVSRISAGGGSTYYGDSVKGRFTISRDNSKNTLYLQMNSLRAEDTAVYYCANRAGWGSGDYWGQGTLVTVSS
VL: QTVVTQEPSFSVSPGGTVTLTCGLSSGSVTASNYPGWYQQTPGQAPRALIYSTNDRHSGVPDRFSGSISGNKAALTITGAQAEDEADYYCALDIGDITEFGGGTQLTVL
notes: Fab; The VL is that of 111A7; also called M98X: S
- koff [7]: 9.81e-05 s⁻¹
- koff [8]: 0.000146 s⁻¹
- average binding [9]: 118
- koff [10]: 5.46e-05 s⁻¹

B4: Fab 111A7M_L (CMC optimized variant of Fab 111A7, CDR3 methionine to leucine) (Fab, V domains shown)
VH: EVQLLESGGGLVQPGGSLRLSCAASGFTFSSYAMSWVRQAPGKGPEWVSRISAGGGSTYYGDSVKGRFTISRDNSKNTLYLQMNSLRAEDTAVYYCANRAGWGLGDYWGQGTLVTVSS
VL: QTVVTQEPSFSVSPGGTVTLTCGLSSGSVTASNYPGWYQQTPGQAPRALIYSTNDRHSGVPDRFSGSISGNKAALTITGAQAEDEADYYCALDIGDITEFGGGTQLTVL
notes: Fab; The VL is that of 111A7; also called M98X: L
- average binding [11]: 141
- koff [12]: 0.000117 s⁻¹
- koff [13]: 6.78e-05 s⁻¹
- koff [14]: 0.000184 s⁻¹
